This is an account of results in US20020137213A1 (published 2002).

Test [1] deals with coxsackie adenovirus receptor (CAR), human, on HeLa cells (human) (UniProt P78310). The experiment in a line: cell-based or functional assay.
In test [2] the target is T1, coxsackie adenovirus receptor (CAR), human, on HeLa cells (human, UniProt P78310 20-365).
T1 sequence: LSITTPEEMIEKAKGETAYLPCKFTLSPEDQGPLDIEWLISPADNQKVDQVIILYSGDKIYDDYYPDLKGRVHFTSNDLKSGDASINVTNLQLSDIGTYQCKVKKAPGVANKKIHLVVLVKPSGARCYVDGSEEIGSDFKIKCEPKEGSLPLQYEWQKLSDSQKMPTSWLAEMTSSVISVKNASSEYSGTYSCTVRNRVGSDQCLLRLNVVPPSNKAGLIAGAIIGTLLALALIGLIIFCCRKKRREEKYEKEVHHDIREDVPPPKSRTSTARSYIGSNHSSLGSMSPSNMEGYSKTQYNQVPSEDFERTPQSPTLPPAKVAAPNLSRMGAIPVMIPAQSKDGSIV
The experiment in a line: cell-based or functional assay.

As for “KO1 mutant Ad5 fiber protein (S408E, P409A) (from UniProt P11818 1-581)”, in test [1], the Mean % wt βgal activity, transduction of Hela cells amounted to 1.4 % wt; the Representative avg βgal activity (RLU/ug protein), transduction of Hela cells at 1000 particles per cell (RLU/ug protein) came out at 7620; the fold reduction of β-galactosidase activity against wildtype fiber, Hela cells was determined as 70 fold.

Consider “KO10 mutant Ad5 fiber protein (P505A) (from UniProt P11818 1-581)”, for which, in test [1], the Mean % wt βgal activity, transduction of Hela cells turned out to be 79.6 % wt and the Representative avg βgal activity (RLU/ug protein), transduction of Hela cells at 1000 particles per cell (RLU/ug protein) worked out at 447000.

In test [1], “KO4 mutant Ad5 fiber protein (ΔG509, K510) (from UniProt P11818 1-581)” returned a Mean % wt βgal activity, transduction of Hela cells of 38.2 % wt and a Representative avg βgal activity (RLU/ug protein), transduction of Hela cells at 1000 particles per cell (RLU/ug protein) of 213000.

Consider “KO9 mutant Ad5 fiber protein (V466H) (from UniProt P11818 1-581)”, for which, in test [1], the Mean % wt βgal activity, transduction of Hela cells amounted to 80.9 % wt and the Representative avg βgal activity (RLU/ug protein), transduction of Hela cells at 1000 particles per cell (RLU/ug protein) came out at 391000.

Take “KO2a mutant Ad5 fiber protein (ΔV441) (from UniProt P11818 1-581)”: in test [1], the Mean % wt βgal activity, transduction of Hela cells worked out at 0.6 % wt; the Representative avg βgal activity (RLU/ug protein), transduction of Hela cells at 1000 particles per cell (RLU/ug protein) worked out at 4000; the decrease in transduction efficiency, Hela cells was > 160 fold; the fold reduction of β-galactosidase activity against wildtype fiber, Hela cells was determined as 167 fold.

Regarding “KO3 mutant Ad5 fiber protein (R460E) (from UniProt P11818 1-581)”, in test [1], the Mean % wt βgal activity, transduction of Hela cells came to 63.3 % wt and the Representative avg βgal activity (RLU/ug protein), transduction of Hela cells at 1000 particles per cell (RLU/ug protein) was 359000.

Turning to “KO2 mutant Ad5 fiber protein (ΔV441, K442) (from UniProt P11818 1-581)”, in test [1], the Mean % wt βgal activity, transduction of Hela cells turned out to be 0.6 % wt; the Representative avg βgal activity (RLU/ug protein), transduction of Hela cells at 1000 particles per cell (RLU/ug protein) was found to be 3320; the decrease in transduction efficiency, Hela cells is > 160 fold; the fold reduction of β-galactosidase activity against wildtype fiber, Hela cells stood at 167 fold.

In the case of “KO8 mutant Ad5 fiber protein (N464T) (from UniProt P11818 1-581)”, in test [1], the Mean % wt βgal activity, transduction of Hela cells worked out at 92.6 % wt and the Representative avg βgal activity (RLU/ug protein), transduction of Hela cells at 1000 particles per cell (RLU/ug protein) stood at 470000.

Consider “KO1+2 mutant Ad5 fiber protein (S408E, P409A, ΔV441, K442) (from UniProt P11818 1-581)”, for which, in test [1], the Mean % wt βgal activity, transduction of Hela cells came to 0.1 % wt; the Representative avg βgal activity (RLU/ug protein), transduction of Hela cells at 1000 particles per cell (RLU/ug protein) is 472; the fold reduction in fiber-mediated gene transfer, Hela cells was determined as 1000 fold; the fold reduction of β-galactosidase activity against wildtype fiber, Hela cells is 1000 fold.

Consider “KO2b mutant Ad5 fiber protein (ΔK442) (from UniProt P11818 1-581)”, for which, in test [1], the Mean % wt βgal activity, transduction of Hela cells was 8.3 % wt and the Representative avg βgal activity (RLU/ug protein), transduction of Hela cells at 1000 particles per cell (RLU/ug protein) was found to be 44400.

In test [1], “KO5 mutant Ad5 fiber protein (ΔG538, T539) (from UniProt P11818 1-581)” registered a Mean % wt βgal activity, transduction of Hela cells of 58.3 % wt and a Representative avg βgal activity (RLU/ug protein), transduction of Hela cells at 1000 particles per cell (RLU/ug protein) of 331000.

Consider “KO11 mutant Ad5 fiber protein (Δ404-581, knob replaced by GCN4 isoleucine 31 amino acid peptide) (from UniProt P11818 1-403)”, for which, in test [1], the Mean % wt βgal activity, transduction of Hela cells was 0.8 % wt; the Representative avg βgal activity (RLU/ug protein), transduction of Hela cells at 1000 particles per cell (RLU/ug protein) came to 4520; the fold reduction of β-galactosidase activity against wildtype fiber, Hela cells amounted to 125 fold.

In test [1], “KO2c mutant Ad5 fiber protein (V441A, K442A) (from UniProt P11818 1-581)” gave a Mean % wt βgal activity, transduction of Hela cells of 8.5 % wt; a Representative avg βgal activity (RLU/ug protein), transduction of Hela cells at 1000 particles per cell (RLU/ug protein) of 53300; a fold reduction in fiber-mediated gene transfer, Hela cells of 12 fold.

B1: wildtype Ad5 fiber protein (other)
chain: MKRARPSEDTFNPVYPYDTETGPPTVPFLTPPFVSPNGFQESPPGVLSLRLSEPLVTSNGMLALKMGNGLSLDEAGNLTSQNVTTVSPPLKKTKSNINLEISAPLTVTSEALTVAAAAPLMVAGNTLTMQSQAPLTVHDSKLSIATQGPLTVSEGKLALQTSGPLTTTDSSTLTITASPPLTTATGSLGIDLKEPIYTQNGKLGLKYGAPLHVTDDLNTLTVATGPGVTINNTSLQTKVTGALGFDSQGNMQLNVAGGLRIDSQNRRLILDVSYPFDAQNQLNLRLGQGPLFINSAHNLDINYNKGLYLFTASNNSKKLEVNLSTAKGLMFDATAIAINAGDGLEFGSPNAPNTNPLKTKIGHGLEFDSNKAMVPKLGTGLSFDSTGAITVGNKNNDKLTLWTTPAPSPNCRLNAEKDAKLTLVLTKCGSQILATVSVLAVKGSLAPISGTVQSAHLIIRFDENGVLLNNSFLDPEYWNFRNGDLTEGTAYTNAVGFMPNLSAYPKSHGKTAKSNIVSQVYLNGDKTKPVTLTITLNGTQETGDTTPSAYSMSFSWDWSGHNYINEIFATSSYTFSYIAQE
B1: in test [2], the “Mean % wt βgal activity, transduction of Hela cells” value was determined as 100 % wt.

B2: KO4+5 mutant Ad5 fiber protein (ΔG509, K510, ΔG538, T539) (other)
chain: MKRARPSEDTFNPVYPYDTETGPPTVPFLTPPFVSPNGFQESPPGVLSLRLSEPLVTSNGMLALKMGNGLSLDEAGNLTSQNVTTVSPPLKKTKSNINLEISAPLTVTSEALTVAAAAPLMVAGNTLTMQSQAPLTVHDSKLSIATQGPLTVSEGKLALQTSGPLTTTDSSTLTITASPPLTTATGSLGIDLKEPIYTQNGKLGLKYGAPLHVTDDLNTLTVATGPGVTINNTSLQTKVTGALGFDSQGNMQLNVAGGLRIDSQNRRLILDVSYPFDAQNQLNLRLGQGPLFINSAHNLDINYNKGLYLFTASNNSKKLEVNLSTAKGLMFDATAIAINAGDGLEFGSPNAPNTNPLKTKIGHGLEFDSNKAMVPKLGTGLSFDSTGAITVGNKNNDKLTLWTTPAPSPNCRLNAEKDAKLTLVLTKCGSQILATVSVLAVKGSLAPISGTVQSAHLIIRFDENGVLLNNSFLDPEYWNFRNGDLTEGTAYTNAVGFMPNLSAYPKSHTAKSNIVSQVYLNGDKTKPVTLTITLNQETGDTTPSAYSMSFSWDWSGHNYINEIFATSSYTFSYIAQE
With B2, in test [2], the “Mean % wt βgal activity, transduction of Hela cells” value stood at 91.1 % wt.
